Results: PMC7820290 (Nature Communications, 2020)

Key:
Test in all cases: […]; 5 mM HEPES pH 7.5, 80 mM KCl, 20 °C; […]
Conditions in all cases: both partners purified
[1] = target: T1, SARS-CoV-2 N protein residues 247–419 (SARS-CoV-2, UniProt P0DTC9 247-419)
T1 construct: also called N^247–419

[2] = target: T2, SARS-CoV-2 nucleocapsid (N) protein, full length (419 aa) (SARS-CoV-2, UniProt P0DTC9 1-419)
T2 construct: also called N^1–419; N^FL

[3] = target: T3, SARS-CoV-2 N protein residues 175–419 (SARS-CoV-2, UniProt P0DTC9 175-419)
T3 construct: also called N^175–419

[4] = target: T4, SARS-CoV-2 N protein residues 175–364 (SARS-CoV-2, UniProt P0DTC9 175-364)
T4 construct: also called N^175–364

Measured: binding result

B1: soluble C-terminal domain of SARS-CoV-2 membrane (M) protein (aa 104–222 of 222) fused to GFP (domain or fragment)
chain: ARTRSMWSFNPETNILLNVPLHGTILTRPLLESELVIGAVILRGHLRIAGHHLGRCDIKDLPKEITVATSRTLSYYKLGASQRVAGDSGFAAYSRYRIGNYKLNTDHSSSSDNIALLVQ
notes: also called GFP-M^104–222
binds: all assays above
